This experiment has as its target 人PD-1 (程序性死亡受体1) (human) (UniProt Q15116). The experiment in a line: flow cytometry receptor occupancy on patients' peripheral blood T lymphocytes (CD45RA-); bound toripalimab detected with PE-labelled anti-human IgG4 Fc, total PD-1 after saturation with toripalimab; dose groups 1, 3 and 10 mg/kg Q2W.
UniProt Q15116, sequence (Q15116 25-288): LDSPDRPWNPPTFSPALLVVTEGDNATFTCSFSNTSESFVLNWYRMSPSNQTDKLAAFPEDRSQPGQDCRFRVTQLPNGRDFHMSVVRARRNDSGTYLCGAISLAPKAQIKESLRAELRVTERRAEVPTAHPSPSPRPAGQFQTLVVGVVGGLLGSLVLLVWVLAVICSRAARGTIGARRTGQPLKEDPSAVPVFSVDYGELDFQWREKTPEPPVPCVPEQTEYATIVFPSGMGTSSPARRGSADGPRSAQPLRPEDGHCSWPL

In the case of 特瑞普利单抗(Toripalimab) (antibody), the PD-1受体占位率(RO) is over 80%.

These data come from patent CN112972675A.
